# Measurements published in the RNAGym collection of RNA variant scans (doi:10.7554/elife.80360).
# B1: Hammerhead Ribozyme (parent)
# chain: ACCGGAUGUGCUUUCCGGUCUGAUGAGUCCGUGAGGACGAAACAG
# Variants of: B1
# Assay: self-cleavage, relative activity (ratio to wild type); higher = more cleavage; co-transcriptional
row,Variant,self-cleavage
1,G39C A44C,0.437
2,G39C A44G,0.638
3,G39C A44U,0.415
4,A44C,0.663
5,A44U,0.756
6,A44G,1.53
7,A40U A42G,0.261
8,A40U A42C,0.369
9,A40U A42U,0.367
10,A42U C43A,0.344
11,A42U C43G,0.255
12,A42U C43U,0.247
13,A41C A44U,0.3
14,A41C A44C,0.436
15,A41C A44G,0.594
16,A41G G45U,0.407
17,A41G G45A,0.25
18,A41G G45C,0.402
19,G39A A42C,0.369
20,G39A A42U,0.348
21,G39A A42G,0.319
22,A40C G45A,0.431
23,A40C G45C,0.399
24,A40C G45U,0.431

row,Variant,self-cleavage
1,A40U A44G,0.649
2,A40U A44C,0.474
3,A40U A44U,0.336
4,A40G G45C,0.466
5,A40G G45A,0.441
6,A40G G45U,0.421
7,A41G C43U,0.366
8,A41G C43A,0.317
9,A41G C43G,0.346
10,A42G C43A,0.309
11,A42G C43U,0.326
12,A42G C43G,0.308
13,G39U A40U,0.307
14,G39U A40G,0.361
15,G39U A40C,0.295
16,A40U C43G,0.287
17,A40U C43U,0.336
18,A40U C43A,0.344
19,A42G G45U,0.354
20,A42G G45C,0.31
21,A42G G45A,0.306
22,G39U A44G,0.676
23,G39U A44U,0.372
24,G39U A44C,0.417

row,Variant,self-cleavage
1,C43G G45U,0.835
2,C43G G45C,0.378
3,C43G G45A,0.327
4,C43U A44U,0.346
5,C43U A44G,0.586
6,C43U A44C,1.93
7,A41C A42C,0.375
8,A41C A42G,0.276
9,A41C A42U,0.235
10,A42C A44C,0.262
11,A42C A44U,0.351
12,A42C A44G,1.06
13,A41U A42G,0.35
14,A41U A42U,0.244
15,A41U A42C,0.271
16,C43G A44U,0.359
17,C43G A44C,0.464
18,C43G A44G,0.934
19,A40G A42U,0.253
20,A40G A42G,0.312
21,A40G A42C,0.266
22,G39C A40C,0.306
23,G39C A40U,0.296
24,G39C A40G,0.331

row,Variant,self-cleavage
1,A41C G45C,0.336
2,A41C G45U,0.41
3,A41C G45A,0.39
4,G39U A42G,0.342
5,G39U A42U,0.39
6,G39U A42C,0.353
7,G39C A41U,0.305
8,G39C A41G,0.328
9,G39C A41C,0.351
10,A44G G45U,1.93
11,A44G G45C,2.15
12,A44G G45A,1.25
13,A40C A42G,0.314
14,A40C A42C,0.369
15,A40C A42U,0.427
16,G39U G45U,0.445
17,G39U G45A,0.351
18,G39U G45C,0.408
19,A41U A44U,0.378
20,A41U A44C,0.377
21,A41U A44G,0.759
22,G39C C43U,0.368
23,G39C C43G,0.384
24,G39C C43A,0.336

row,Variant,self-cleavage
1,A40G A41G,0.346
2,A40G A41U,0.31
3,A40G A41C,0.341
4,C43A A44C,0.474
5,C43A A44U,0.391
6,C43A A44G,0.304
7,A40C C43U,0.347
8,A40C C43A,0.299
9,A40C C43G,0.33
10,A42C,0.373
11,A42U,0.338
12,A42G,0.336
13,G39U,0.363
14,G39C,0.455
15,A41U G45U,0.359
16,A41U G45A,0.401
17,A41U G45C,0.392
18,G39A G45C,0.421
19,G39A G45A,0.371
20,G39A G45U,0.372
21,A40G A44C,0.304
22,A40G A44U,0.254
23,A40G A44G,0.571
24,A42G A44C,0.484

row,Variant,self-cleavage
1,A42G A44U,0.233
2,A42G A44G,0.544
3,C43U G45U,0.423
4,C43U G45C,0.451
5,C43U G45A,0.419
6,G45C,0.844
7,G45A,0.842
8,G45U,0.898
9,A40C A41C,0.385
10,A40C A41U,0.441
11,A40C A41G,0.307
12,A42C G45C,0.451
13,A42C G45A,0.539
14,A42C G45U,0.421
15,A40U G45U,0.398
16,A40U G45A,0.343
17,A40U G45C,0.458
18,A41U C43U,0.362
19,A41U C43A,0.321
20,A41U C43G,0.332
21,A40C A44C,0.396
22,A40C A44U,0.347
23,A40C A44G,0.69
24,C43A G45C,0.441

row,Variant,self-cleavage
1,C43A G45U,0.68
2,C43A G45A,0.515
3,A44U G45U,1.91
4,A44U G45C,1.86
5,A44U G45A,0.607
6,A41G A44C,0.391
7,A41G A44G,0.692
8,A41G A44U,0.322
9,A40G C43G,0.358
10,A40G C43U,0.268
11,A40G C43A,0.339
12,G39U C43A,0.312
13,G39U C43G,0.298
14,G39U C43U,0.371
15,C43U,0.608
16,C43A,0.375
17,C43G,0.406
18,A40U A41U,0.439
19,A40U A41C,0.275
20,A40U A41G,0.27
21,A41G A42G,0.335
22,A41G A42C,0.294
23,A41G A42U,0.335
